Data taken from PMC8797792.
Square brackets hold non-standard residues; d marks the D form. Ends that are not written are not given here. pT = C[C@@H](OP(=O)(O)O)[C@H](N)C(=O)O; pS = N[C@@H](COP(=O)(O)O)C(=O)O

Target: GST-Fbw7 (residues 263 to 707)-Skp1 complex, Q969H0
Assay: AlphaScreen or HTRF

EDIWKKFELLP[pT]PPL[pS]PSRR [Myc T58 degron peptide, diphosphorylated (pT58/pS62)]
IC50: 9.8 nM
